Data on 1 substance can be found in paper PMC9763339.

For this assay, the target named is RBM5-Myc (UniProt P52756).
UniProt P52756, sequence (P52756 whole entry): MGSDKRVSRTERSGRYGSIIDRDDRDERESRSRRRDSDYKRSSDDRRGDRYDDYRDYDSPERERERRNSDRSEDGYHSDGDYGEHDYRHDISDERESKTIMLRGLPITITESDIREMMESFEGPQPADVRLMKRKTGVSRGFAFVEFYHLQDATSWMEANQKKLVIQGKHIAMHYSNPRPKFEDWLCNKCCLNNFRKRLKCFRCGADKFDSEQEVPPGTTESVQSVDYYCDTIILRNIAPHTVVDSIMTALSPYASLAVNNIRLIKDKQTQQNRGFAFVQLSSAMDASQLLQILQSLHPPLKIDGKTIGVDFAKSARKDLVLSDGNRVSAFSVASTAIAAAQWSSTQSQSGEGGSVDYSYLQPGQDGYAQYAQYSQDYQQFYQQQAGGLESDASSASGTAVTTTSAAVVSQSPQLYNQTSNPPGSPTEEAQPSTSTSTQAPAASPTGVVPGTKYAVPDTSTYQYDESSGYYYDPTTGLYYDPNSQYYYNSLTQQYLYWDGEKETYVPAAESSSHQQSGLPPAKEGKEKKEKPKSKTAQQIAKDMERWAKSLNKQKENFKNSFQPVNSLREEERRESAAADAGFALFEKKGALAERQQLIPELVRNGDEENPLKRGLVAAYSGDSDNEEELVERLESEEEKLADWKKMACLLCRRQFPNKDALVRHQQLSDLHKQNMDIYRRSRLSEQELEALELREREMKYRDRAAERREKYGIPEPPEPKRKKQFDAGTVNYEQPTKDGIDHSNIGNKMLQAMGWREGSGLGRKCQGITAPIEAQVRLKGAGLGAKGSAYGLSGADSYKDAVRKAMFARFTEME

The substance “InlP-HA (in HeLa cells) (natural protein)” gave a percentage of HeLa cells with aberrantly shaped nuclei (RBM5-induced cell death) when InlP is co-expressed with RBM5 of 13%.
